Assay [1] deals with CPN60β1 homo-oligomer (Chlamydomonas reinhardtii). As to the kind of experiment: crystal structure; apo CPN60β1 homo-oligomer, 3.8 Å, space group P21, molecular replacement with apo GroEL.
Assay [2] shares this target.
A further assay addresses T1, GroEL (E. coli, UniProt P0A6F5 1-548).
T1 construct: GroEL, group I chaperonin of E. coli; Purification of proteins is in Additional file 1; copies: 14
As to the kind of experiment: SEC; gel filtration, Superdex 200; 2 μM chaperonin and 10 μM GroES; buffer with 50 μM AMP-PNP; fractions on SDS-PAGE, Coomassie. Particulars: both partners purified.

In assay [1], CPN60β1 homo-oligomer (natural protein) registered a stoichiometry N of 14 subunits.

As to “mitochondrial co-chaperonin Hsp10 from mouse (from UniProt Q64433 1-102) (natural protein)”, the inhibition of the ATPase activity of CPN60β1 (0.2 μM chaperonin, 0.4 μM co-chaperonin, 25 °C) in assay [2] came to 50%.

B1: GroES (natural protein, E. coli, UniProt P0A6F9 1-97, looked up)
chain: MNIRPLHDRVIVKRKEVETKSAGGIVLTGSAAAKSTRGEVLAVGNGRILENGEVKPLDVKVGDIVIFNDGYGVKSEKIDNEEVLIMSESDILAIVEA
notes: GroES, co-chaperonin of E. coli; Purification of proteins is in Additional file 1
In the case of B1, the binding result in the assay with GroEL was “binds”.

The values are drawn from article PMC4828840, “Structural insight into the cooperation of chloroplast chaperonin subunits” (BMC Biology, 2016).
